Assay [1] has as its target MUC5AC (NPC-1 antigen) expressed by CFPAC-1 human pancreatic tumor cells (human) (UniProt P98088). Description: FACS, 2 µg/ml isotype control antibody-FITC on CFPAC cells. (In flow cytometry, cells or beads pass a laser one at a time.)
Assay [2] addresses MUC5AC (NPC-1 antigen) expressed by SW480 human colorectal tumor cells (human) (UniProt P98088). Nature of the assay: flow cytometry on SW480 cells.
The target of assay [3] is MUC5AC (NPC-1 antigen) expressed by LS174T human colorectal tumor cells (human) (UniProt P98088). Nature of the assay: FACS, 2 µg/ml isotype control antibody-FITC on LS174 cells.
Assay [4] concerns the target MUC5AC (NPC-1 antigen) expressed by Colo-205 human colorectal tumor cells (human) (UniProt P98088). Description: flow cytometry on Colo-205 cells.
Assay [5] concerns the target MUC5AC (NPC-1 antigen) expressed by SW480 human colorectal tumor cells (human) (UniProt P98088). Nature of the assay: FACS, 2 µg/ml isotype control antibody-FITC on SW480 cells.
Assay [6] addresses MUC5AC (NPC-1 antigen) expressed by LS174T human colorectal tumor cells (human) (UniProt P98088). Description: flow cytometry on LS174T cells.
Assay [7] concerns the target MUC5AC (NPC-1 antigen) expressed by Colo-205 human colorectal tumor cells (human) (UniProt P98088). Nature of the assay: FACS, 2 µg/ml isotype control antibody-FITC on Colo-205 cells.
Assay [8] has as its target MUC5AC (NPC-1 antigen) expressed by CFPAC-1 human pancreatic tumor cells (human) (UniProt P98088). Nature of the assay: flow cytometry on CFPAC-1 cells.

Sequence of MUC5AC (NPC-1 antigen) expressed by CFPAC-1 human pancreatic tumor cells (human) (P98088 other isoform, or with tags, fused parts or gaps limits assumed): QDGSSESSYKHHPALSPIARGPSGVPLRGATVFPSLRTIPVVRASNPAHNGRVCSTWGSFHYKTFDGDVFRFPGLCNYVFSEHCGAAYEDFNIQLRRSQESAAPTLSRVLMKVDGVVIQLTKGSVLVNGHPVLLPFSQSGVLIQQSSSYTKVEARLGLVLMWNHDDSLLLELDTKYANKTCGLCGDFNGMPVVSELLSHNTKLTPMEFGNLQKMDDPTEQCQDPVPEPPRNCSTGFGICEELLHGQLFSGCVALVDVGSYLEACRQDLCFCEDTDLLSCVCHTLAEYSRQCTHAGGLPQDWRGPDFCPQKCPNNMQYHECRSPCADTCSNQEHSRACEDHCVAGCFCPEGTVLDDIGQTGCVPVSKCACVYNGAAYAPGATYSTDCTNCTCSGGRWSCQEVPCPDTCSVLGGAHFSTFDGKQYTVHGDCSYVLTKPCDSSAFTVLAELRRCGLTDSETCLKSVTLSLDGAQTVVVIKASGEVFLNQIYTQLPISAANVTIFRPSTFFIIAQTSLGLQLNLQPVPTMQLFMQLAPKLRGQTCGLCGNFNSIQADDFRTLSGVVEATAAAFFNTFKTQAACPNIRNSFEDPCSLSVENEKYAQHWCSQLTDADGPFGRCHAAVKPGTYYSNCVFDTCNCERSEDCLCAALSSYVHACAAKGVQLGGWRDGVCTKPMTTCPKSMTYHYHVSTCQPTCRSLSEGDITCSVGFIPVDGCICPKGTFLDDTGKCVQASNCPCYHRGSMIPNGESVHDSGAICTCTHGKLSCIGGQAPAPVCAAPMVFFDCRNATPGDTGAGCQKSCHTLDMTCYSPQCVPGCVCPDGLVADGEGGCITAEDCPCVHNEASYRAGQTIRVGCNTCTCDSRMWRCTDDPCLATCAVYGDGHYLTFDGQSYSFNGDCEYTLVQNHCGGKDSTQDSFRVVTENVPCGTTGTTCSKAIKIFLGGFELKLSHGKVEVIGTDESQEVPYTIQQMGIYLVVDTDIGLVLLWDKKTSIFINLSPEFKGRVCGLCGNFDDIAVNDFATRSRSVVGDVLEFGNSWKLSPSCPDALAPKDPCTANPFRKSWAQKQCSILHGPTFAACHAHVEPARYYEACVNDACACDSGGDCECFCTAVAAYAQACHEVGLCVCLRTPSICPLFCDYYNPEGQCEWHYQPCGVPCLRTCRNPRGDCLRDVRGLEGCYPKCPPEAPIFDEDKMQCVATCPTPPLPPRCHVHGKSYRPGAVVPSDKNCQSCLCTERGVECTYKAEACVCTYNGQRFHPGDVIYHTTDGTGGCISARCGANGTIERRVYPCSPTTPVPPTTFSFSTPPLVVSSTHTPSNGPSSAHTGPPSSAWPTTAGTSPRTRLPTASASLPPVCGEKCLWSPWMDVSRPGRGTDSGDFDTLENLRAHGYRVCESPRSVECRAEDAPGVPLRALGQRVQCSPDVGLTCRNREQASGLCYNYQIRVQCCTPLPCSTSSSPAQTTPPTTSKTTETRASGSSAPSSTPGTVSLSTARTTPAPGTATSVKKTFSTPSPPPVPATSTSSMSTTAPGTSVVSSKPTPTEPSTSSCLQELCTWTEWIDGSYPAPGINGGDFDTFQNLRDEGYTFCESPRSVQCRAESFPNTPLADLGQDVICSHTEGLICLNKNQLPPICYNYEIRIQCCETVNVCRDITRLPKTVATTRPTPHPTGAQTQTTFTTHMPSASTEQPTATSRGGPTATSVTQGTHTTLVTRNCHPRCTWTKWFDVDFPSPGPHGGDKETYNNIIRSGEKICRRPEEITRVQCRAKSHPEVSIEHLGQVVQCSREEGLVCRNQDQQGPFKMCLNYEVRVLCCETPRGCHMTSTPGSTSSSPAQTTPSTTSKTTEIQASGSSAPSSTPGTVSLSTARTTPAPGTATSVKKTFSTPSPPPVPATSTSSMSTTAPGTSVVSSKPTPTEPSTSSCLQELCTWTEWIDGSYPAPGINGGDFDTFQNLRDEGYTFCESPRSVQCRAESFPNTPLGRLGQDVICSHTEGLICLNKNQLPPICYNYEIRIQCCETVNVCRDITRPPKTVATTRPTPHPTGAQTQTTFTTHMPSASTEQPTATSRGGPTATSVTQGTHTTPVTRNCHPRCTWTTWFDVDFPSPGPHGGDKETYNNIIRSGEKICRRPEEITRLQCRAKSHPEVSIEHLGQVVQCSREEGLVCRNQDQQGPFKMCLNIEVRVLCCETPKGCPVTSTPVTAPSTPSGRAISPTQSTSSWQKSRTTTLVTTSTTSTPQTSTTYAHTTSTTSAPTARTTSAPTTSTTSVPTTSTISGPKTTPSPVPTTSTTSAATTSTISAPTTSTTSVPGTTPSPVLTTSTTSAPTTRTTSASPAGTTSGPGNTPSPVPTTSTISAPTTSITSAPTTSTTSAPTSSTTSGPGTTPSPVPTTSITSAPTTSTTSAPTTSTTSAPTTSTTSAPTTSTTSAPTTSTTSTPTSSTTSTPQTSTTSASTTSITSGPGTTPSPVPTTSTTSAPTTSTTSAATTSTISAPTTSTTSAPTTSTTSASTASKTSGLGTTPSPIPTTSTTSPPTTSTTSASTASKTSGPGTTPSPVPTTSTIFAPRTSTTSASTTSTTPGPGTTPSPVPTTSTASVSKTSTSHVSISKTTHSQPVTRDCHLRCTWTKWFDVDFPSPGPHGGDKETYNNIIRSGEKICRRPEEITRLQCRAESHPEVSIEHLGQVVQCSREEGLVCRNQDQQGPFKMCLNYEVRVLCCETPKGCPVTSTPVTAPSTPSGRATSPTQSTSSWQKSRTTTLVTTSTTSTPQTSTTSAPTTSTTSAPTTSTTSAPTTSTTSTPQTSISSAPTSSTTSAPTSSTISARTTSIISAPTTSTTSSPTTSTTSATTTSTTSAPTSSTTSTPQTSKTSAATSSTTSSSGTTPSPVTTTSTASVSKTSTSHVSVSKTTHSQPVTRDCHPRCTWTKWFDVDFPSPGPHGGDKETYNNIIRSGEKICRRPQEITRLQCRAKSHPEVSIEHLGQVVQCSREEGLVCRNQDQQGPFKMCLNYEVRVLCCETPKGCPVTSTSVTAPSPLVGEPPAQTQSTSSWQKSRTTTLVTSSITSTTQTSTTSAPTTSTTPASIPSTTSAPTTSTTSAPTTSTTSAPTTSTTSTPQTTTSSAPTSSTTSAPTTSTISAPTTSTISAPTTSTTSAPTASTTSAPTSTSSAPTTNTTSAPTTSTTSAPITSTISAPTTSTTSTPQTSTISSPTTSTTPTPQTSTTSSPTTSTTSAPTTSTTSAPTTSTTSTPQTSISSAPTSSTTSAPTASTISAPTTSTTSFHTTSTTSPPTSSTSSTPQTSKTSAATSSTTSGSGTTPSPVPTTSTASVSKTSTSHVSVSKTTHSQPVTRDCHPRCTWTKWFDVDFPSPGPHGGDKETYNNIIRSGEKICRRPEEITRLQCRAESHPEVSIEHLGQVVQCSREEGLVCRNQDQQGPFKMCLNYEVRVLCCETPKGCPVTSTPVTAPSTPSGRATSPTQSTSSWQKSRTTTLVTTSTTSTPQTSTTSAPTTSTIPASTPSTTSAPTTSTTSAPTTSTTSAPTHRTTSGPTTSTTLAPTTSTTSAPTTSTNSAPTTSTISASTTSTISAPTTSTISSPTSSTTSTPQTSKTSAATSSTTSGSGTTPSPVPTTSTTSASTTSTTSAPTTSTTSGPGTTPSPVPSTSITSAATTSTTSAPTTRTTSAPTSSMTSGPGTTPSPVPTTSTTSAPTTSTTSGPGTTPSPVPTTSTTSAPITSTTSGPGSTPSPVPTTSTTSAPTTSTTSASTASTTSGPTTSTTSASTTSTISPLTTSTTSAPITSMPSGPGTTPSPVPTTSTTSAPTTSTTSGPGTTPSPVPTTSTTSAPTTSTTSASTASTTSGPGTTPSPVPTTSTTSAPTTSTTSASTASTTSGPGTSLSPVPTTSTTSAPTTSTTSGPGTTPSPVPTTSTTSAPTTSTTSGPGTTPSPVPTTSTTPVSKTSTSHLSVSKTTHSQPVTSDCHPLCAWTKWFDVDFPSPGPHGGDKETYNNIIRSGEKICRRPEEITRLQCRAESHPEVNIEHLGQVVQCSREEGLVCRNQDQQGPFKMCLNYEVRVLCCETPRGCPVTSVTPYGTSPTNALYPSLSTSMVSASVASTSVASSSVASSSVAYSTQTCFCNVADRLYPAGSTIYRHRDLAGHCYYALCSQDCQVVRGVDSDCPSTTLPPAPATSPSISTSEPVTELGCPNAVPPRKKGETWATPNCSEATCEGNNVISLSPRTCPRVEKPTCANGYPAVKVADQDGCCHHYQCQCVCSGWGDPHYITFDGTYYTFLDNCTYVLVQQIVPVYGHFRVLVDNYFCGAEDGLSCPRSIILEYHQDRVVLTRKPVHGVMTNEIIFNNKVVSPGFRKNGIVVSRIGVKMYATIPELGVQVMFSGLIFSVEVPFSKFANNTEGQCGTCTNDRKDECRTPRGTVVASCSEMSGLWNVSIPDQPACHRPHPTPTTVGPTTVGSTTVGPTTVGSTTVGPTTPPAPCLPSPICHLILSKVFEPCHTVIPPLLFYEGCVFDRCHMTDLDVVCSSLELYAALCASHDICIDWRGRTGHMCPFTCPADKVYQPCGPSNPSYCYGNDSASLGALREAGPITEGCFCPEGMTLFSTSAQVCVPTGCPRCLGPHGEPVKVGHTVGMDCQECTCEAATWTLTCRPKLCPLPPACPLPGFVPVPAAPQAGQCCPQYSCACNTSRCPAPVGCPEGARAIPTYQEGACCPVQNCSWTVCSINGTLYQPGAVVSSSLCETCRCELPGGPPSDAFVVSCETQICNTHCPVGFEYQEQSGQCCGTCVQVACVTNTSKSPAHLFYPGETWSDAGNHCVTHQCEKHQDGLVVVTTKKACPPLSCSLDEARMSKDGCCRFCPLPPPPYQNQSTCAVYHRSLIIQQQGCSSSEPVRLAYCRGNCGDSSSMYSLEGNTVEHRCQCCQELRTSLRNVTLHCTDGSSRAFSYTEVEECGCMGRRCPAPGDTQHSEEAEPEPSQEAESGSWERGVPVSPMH
Sequence of MUC5AC (NPC-1 antigen) expressed by SW480 human colorectal tumor cells (human) (P98088 other isoform, or with tags, fused parts or gaps limits assumed): as above
Sequence of MUC5AC (NPC-1 antigen) expressed by Colo-205 human colorectal tumor cells (human) (P98088 other isoform, or with tags, fused parts or gaps limits assumed): as above
Sequence of MUC5AC (NPC-1 antigen) expressed by LS174T human colorectal tumor cells (human) (P98088 other isoform, or with tags, fused parts or gaps limits assumed, change not shown): as the sequence (P98088 other isoform, or with tags, fused parts or gaps limits assumed) above

As for Isotype control antibody, the Percent positive in assay [1] was found to be 1.79%; in assay [3], 3.85%; in assay [5], 3.38%; in assay [7] it was 2.33%. Also, the mfi in assay [2] is 56 mfi; in assay [4] it was 34 mfi; in assay [6] it was 35 mfi; in assay [8], 25 mfi.

Values taken from patent US20130247232A1.
